The results in this text go back to patent US20030095983A1 (ZymoGenetics, published 2003).

Experiment [1] concerns the target TSH receptor (TSHR) on primary human adipocytes (human, UniProt P16473 21-764). Description: cell-based or functional assay.
In experiment [2] the target is TSH receptor (TSHR) on differentiated murine 3T3 L1 adipocytes (murine, UniProt P47750 22-764). Description: cell-based or functional assay.
In experiment [3] the target is T1, glycoprotein hormone beta 5 (GPHB5), human, beta subunit of CGH (human, UniProt Q86YW7 25-130).
T1 construct: Secreted from CHO 180 cells
T1 sequence: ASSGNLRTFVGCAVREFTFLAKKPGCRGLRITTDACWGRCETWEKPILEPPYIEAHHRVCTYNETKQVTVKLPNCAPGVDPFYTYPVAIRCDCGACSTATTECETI
Description: co-expression in CHO cells; secreted heterodimer.

Chain of TSH receptor (TSHR) on differentiated murine 3T3 L1 adipocytes (P47750 22-764): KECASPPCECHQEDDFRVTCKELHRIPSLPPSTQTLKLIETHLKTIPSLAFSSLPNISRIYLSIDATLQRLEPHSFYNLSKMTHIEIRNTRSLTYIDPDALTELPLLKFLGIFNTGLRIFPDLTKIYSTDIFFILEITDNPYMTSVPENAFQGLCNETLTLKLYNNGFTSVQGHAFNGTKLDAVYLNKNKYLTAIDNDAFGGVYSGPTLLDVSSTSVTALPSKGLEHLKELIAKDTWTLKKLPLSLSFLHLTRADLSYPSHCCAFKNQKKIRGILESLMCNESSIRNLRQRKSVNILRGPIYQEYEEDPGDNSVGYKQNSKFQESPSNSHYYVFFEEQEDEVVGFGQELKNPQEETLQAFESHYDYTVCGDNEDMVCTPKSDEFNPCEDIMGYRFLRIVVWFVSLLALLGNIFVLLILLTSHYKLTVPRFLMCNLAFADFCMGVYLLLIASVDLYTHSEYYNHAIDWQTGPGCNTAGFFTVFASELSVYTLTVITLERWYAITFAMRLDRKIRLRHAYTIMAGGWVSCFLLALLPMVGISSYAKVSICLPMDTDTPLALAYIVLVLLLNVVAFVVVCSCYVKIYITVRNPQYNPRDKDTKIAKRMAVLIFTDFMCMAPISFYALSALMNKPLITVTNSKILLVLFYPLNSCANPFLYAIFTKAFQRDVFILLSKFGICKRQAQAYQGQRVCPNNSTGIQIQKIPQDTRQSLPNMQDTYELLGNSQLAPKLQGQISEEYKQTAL
Chain of TSH receptor (TSHR) on primary human adipocytes (P16473 21-764): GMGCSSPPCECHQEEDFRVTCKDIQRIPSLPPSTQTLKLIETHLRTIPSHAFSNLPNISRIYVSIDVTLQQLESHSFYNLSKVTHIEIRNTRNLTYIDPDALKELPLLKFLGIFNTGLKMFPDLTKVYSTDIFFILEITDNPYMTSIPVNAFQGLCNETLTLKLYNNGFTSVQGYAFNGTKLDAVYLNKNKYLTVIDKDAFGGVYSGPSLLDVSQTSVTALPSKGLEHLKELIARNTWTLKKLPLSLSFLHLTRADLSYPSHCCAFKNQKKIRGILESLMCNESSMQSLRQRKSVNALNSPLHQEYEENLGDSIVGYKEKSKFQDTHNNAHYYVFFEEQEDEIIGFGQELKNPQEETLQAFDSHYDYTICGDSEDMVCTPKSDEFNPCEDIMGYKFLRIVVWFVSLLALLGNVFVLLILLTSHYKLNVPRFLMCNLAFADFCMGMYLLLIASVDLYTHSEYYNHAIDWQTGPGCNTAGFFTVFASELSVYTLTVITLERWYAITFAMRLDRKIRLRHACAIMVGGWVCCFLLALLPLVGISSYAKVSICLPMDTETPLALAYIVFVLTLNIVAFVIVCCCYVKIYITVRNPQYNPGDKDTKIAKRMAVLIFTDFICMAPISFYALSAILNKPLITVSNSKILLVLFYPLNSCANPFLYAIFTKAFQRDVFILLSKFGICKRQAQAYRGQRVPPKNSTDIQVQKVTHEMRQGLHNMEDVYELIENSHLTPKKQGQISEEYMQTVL

B1: corticotroph-derived glycoprotein hormone (CGH), human recombinant, non-covalent heterodimer of GPHA2 and GPHB5 (ligand)
chain 1: QEAVIPGCHLHPFNVTVRSDRQGTCQGSHVAQACVGHCESSAFPSRYSVLVASGYRHNITSVSQCCTISGLKKVKVQLQCVGSRREELEIFTARACQCDMCRLSRY
chain 2: T1 sequence
For the molecule B1, in experiment [1], the “induction of the reporter gene (CRE-luciferase reporter, cAMP)” value was determined as 14 fold. In addition, in experiment [2], the “induction of luciferase expression (CRE-luciferase reporter, cAMP)” value amounted to 27 fold.

B2: glycoprotein hormone alpha2 (GPHA2), human, alpha subunit of CGH (ligand)
chain: B1 chain 1
notes: Secreted from CHO 180 cells; also called Zsig51
On to B2, for which the binding result in experiment [3] is on record as “binds”.
